According to the supplement of paper PMC10065799, “High-throughput profiling of sequence recognition by tyrosine kinases and SH2 domains using bacterial peptide display” (eLife, 2023):

Experiments:
c-Src SH2 = assay: SH2 binding enrichment of the phosphorylated peptide, bacterial display (enrichment ratio); higher = better substrate or ligand; peptides without Tyr show the background
Grb2 SH2 = Grb2 SH2 (UniProt P62993); assay: as above
SHP2-C SH2 = assay: as above
FGFR3 = FGFR3 (UniProt P22607); assay: phosphorylation enrichment, bacterial display (enrichment ratio); higher = better substrate or ligand; peptides without Tyr show the background
Fer (mouse) = assay: as above
MERTK = MERTK (UniProt Q12866); assay: as above
Jak2 = Jak2 (UniProt O60674); assay: as above
AncSZ = assay: as above
EPHB1 = EPHB1 (UniProt P54762); assay: as above
Hck = Hck (UniProt P08631); assay: as above
c-Src = assay: as above
c-Abl (mouse) = assay: as above
EPHB2 = EPHB2 (UniProt P29323); assay: as above
Fes = Fes (UniProt P07332); assay: as above
FGFR1 = FGFR1 (UniProt P11362); assay: as above
Fyn = Fyn (UniProt P06241); assay: as above
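Wherever SH2 binding enrichment of the phosphorylated peptide, bacterial display is given: peptide library displayed on the E. coli surface as eCPX fusions, selected cells deep-sequenced, score is each peptide's frequency after selection divided by its frequency in the input.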
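Wherever phosphorylation enrichment, bacterial display is given: 11-residue human phosphosite peptides and single-mutation variants displayed on the E. coli surface, counted by deep sequencing, each peptide's frequency after selection divided by its frequency in the unselected input library; frequency after pTyr selection over input frequency; kinase dosed for 20-30% of maximal phosphorylation in three min.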

Chain of EPHB1 (P54762 whole entry, looked up): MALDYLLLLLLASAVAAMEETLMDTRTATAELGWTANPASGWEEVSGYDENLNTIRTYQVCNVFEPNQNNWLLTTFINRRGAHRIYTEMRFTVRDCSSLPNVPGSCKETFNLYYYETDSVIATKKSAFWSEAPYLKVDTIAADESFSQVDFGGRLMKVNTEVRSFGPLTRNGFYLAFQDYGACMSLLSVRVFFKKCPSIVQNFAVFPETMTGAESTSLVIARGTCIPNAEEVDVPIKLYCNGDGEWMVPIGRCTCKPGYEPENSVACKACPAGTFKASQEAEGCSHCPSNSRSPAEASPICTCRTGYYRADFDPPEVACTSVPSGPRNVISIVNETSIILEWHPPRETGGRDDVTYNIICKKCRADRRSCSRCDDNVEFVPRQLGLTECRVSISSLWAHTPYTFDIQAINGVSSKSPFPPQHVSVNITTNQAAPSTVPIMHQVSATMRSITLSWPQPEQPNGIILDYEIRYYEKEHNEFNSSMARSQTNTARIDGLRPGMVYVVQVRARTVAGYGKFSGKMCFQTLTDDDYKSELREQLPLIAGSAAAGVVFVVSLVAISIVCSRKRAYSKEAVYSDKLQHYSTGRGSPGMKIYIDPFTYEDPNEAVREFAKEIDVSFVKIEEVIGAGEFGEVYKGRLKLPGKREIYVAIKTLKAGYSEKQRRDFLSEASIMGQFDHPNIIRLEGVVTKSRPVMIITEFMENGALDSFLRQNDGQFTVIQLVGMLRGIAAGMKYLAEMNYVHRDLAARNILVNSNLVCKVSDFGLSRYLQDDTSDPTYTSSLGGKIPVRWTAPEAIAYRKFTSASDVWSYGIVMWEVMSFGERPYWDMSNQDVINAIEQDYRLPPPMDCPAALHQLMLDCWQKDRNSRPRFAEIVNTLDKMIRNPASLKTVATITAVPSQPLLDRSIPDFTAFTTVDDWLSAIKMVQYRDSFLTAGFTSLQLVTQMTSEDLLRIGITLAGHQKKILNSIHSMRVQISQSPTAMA
Chain of Fyn (P06241 whole entry, looked up, the tested form may be a part): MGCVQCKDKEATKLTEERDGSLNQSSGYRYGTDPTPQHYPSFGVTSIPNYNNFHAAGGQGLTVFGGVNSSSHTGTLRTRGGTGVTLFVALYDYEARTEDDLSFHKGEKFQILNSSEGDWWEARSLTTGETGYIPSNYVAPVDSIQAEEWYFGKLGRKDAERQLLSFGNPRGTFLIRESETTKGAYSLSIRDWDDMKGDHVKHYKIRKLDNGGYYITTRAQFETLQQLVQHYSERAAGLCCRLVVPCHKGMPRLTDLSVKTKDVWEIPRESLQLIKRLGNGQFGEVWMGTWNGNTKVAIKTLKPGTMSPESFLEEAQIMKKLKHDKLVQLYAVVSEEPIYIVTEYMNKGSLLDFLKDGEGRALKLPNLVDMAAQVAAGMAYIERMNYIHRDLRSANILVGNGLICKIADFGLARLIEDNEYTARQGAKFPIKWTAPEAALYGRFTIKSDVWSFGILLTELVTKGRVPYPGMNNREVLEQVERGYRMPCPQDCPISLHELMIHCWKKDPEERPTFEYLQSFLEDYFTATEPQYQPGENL
Chain of MERTK (Q12866 whole entry, looked up): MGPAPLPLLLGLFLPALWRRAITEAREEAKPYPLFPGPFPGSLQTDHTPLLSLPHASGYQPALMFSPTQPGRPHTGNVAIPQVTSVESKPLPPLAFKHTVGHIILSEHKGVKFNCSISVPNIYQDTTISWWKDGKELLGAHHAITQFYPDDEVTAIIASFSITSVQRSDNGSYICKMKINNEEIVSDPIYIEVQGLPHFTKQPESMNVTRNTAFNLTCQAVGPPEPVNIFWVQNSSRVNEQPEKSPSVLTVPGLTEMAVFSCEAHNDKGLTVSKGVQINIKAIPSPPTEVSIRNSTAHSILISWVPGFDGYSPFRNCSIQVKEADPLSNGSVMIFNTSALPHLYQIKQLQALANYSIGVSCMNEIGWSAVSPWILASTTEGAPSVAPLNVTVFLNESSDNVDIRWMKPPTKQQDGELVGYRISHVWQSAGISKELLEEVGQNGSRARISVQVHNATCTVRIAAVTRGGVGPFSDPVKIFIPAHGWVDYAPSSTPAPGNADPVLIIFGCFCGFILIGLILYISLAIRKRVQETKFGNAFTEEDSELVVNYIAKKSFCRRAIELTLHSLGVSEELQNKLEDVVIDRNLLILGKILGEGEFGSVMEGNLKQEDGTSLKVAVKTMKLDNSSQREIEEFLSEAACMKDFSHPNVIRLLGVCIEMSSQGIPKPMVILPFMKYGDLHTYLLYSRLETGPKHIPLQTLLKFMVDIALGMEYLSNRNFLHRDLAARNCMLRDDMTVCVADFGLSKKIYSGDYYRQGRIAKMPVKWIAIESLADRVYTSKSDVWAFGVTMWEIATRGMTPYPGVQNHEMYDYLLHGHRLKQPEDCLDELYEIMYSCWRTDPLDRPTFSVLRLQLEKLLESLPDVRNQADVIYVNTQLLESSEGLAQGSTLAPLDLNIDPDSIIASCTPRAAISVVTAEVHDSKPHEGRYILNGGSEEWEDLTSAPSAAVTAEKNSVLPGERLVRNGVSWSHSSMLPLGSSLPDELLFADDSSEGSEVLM
Chain of FGFR3 (P22607 whole entry, looked up): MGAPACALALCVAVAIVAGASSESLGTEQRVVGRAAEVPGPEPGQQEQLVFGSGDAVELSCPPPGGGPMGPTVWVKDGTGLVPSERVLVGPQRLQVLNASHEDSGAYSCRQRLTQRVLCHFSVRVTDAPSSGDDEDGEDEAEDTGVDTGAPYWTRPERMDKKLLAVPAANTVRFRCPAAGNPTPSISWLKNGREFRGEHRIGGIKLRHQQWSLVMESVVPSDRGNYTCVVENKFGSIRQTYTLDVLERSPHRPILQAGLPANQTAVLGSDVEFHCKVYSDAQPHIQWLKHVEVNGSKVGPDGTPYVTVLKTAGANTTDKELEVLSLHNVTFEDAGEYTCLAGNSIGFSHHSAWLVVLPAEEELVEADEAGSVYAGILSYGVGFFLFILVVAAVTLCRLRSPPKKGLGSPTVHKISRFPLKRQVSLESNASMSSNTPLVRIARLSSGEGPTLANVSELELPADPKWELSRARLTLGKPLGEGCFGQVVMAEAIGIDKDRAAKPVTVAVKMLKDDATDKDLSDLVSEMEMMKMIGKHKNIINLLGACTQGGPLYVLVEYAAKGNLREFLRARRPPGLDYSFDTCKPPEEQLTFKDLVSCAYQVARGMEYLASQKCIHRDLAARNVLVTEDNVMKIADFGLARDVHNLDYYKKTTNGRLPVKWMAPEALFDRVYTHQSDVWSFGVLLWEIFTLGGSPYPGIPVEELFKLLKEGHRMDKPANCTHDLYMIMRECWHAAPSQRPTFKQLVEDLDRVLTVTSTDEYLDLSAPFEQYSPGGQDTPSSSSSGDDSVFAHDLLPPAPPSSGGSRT
Chain of Jak2 (O60674 whole entry, looked up): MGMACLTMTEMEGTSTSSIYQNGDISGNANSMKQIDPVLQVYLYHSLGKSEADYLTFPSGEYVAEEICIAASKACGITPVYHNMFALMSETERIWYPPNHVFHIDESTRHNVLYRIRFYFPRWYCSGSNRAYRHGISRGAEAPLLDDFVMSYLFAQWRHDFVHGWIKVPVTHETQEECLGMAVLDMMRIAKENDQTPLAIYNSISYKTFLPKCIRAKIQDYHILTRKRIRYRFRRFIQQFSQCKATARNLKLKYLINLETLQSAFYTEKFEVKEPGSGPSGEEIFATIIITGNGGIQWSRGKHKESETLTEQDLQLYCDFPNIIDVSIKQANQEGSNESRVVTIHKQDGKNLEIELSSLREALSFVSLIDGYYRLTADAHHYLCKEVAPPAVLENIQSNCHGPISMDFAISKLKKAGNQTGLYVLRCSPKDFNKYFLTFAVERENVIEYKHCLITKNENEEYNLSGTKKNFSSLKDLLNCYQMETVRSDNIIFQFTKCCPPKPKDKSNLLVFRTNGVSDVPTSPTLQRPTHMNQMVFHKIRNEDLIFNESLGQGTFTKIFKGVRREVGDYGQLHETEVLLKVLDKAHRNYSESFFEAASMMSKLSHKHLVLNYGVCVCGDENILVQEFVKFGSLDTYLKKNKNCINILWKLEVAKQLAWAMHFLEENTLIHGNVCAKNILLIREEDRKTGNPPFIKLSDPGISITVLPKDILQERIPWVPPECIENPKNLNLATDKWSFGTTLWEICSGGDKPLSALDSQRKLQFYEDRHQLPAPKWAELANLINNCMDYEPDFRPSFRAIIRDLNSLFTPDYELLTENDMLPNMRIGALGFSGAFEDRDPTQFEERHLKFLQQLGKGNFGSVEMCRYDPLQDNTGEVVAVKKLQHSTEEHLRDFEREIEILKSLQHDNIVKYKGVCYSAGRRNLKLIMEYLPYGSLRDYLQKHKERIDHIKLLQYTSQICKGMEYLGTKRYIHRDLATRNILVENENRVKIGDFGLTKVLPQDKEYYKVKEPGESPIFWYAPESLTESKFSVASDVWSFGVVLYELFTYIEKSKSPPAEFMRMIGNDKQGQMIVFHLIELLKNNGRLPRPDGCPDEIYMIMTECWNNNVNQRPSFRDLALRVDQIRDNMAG
Chain of Hck (P08631 whole entry, looked up): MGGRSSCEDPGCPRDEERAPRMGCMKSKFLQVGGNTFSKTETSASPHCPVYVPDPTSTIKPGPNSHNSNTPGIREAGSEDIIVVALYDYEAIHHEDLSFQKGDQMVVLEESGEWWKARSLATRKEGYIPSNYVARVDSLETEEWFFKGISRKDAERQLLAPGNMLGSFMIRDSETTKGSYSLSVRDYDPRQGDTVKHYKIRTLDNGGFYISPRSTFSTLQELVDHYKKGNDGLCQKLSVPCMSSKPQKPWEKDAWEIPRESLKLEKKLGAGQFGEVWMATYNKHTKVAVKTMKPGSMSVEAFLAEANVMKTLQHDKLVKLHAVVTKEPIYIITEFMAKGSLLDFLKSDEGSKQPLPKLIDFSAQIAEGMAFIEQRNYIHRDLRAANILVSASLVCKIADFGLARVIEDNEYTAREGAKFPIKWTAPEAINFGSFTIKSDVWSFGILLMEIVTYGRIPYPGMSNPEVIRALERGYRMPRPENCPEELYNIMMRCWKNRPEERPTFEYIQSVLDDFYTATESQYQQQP

Sequence	SH2 binding enrichment (c-Src SH2)	SH2 binding enrichment (Grb2 SH2)	SH2 binding enrichment (SHP2-C SH2)	phosphorylation enrichment (FGFR3)	phosphorylation enrichment (Fer (mouse))	phosphorylation enrichment (MERTK)	phosphorylation enrichment (Jak2)	phosphorylation enrichment (AncSZ)	phosphorylation enrichment (EPHB1)	phosphorylation enrichment (Hck)	phosphorylation enrichment (c-Src)	phosphorylation enrichment (c-Abl (mouse))	phosphorylation enrichment (EPHB2)	phosphorylation enrichment (Fes)	phosphorylation enrichment (FGFR1)	phosphorylation enrichment (Fyn)
VKPENDRRLDI [VHL_Y175_Y175D]	0.584	1.12	0.718	0.539	0.43	0.531	0.692	0.675	0.44	0.43	0.356	0.535	0.438	0.789	0.37	0.43
TVMGLYQKSSL [MYH7_Y609_V606M]	0.377	0.84	1.13	0.618	0.527	0.601	0.707	0.824	0.657	0.573	0.563	0.525	0.516	0.797	0.412	0.404
GAEIVYKSPVV [MAPT_Y711]	0.418	0.758	0.63	0.672	0.416	0.558	0.694	0.892	0.747	0.497	0.526	18.3	0.581	0.904	0.478	0.533
WAFNLYDINKY [KCNIP3_Y174_D179Y]	0.706	0.906	0.803	0.725	3.29	2.65	0.953	0.987	2.29	3.09	1.57	0.709	3.92	1.24	0.553	1.83
CTNPQYLAAGS [RABL3_Y185_R184Q]	0.589	0.885	0.721	0.609	0.47	0.424	0.778	0.724	0.487	0.505	0.409	0.602	0.505	0.849	0.465	0.537
NPSFNYEIVNR [DYNC1H1_Y3379_YF]	0.574	0.825	0.753	0.666	0.514	0.387	1.1	1.15	2.91	0.535	0.388	0.588	1.29	1.19	0.488	0.445
TTPGPYRSIFF [MPG_Y71_YF]	0.688	0.997	3.79	1.07	0.368	0.663	0.626	1.07	0.493	0.521	0.728	0.706	0.546	0.923	0.551	0.514
LLVVLYKYRCF [PSEN1_Y154_Y159F]	1.29	1.63	1.61	1.12	0.911	0.626	2.16	1.32	1.23	0.825	0.523	2.02	1.03	2.42	1.11	0.762
VRFMAYTDETF [F8_Y450]	0.498	0.734	0.719	0.746	0.494	0.456	1.2	1.04	0.657	0.487	0.433	0.789	0.612	1.19	0.608	0.516
IHADICRWFNI [MARS1_Y344_Y344C]	0.526	0.779	0.633	0.675	0.464	0.356	0.809	0.962	0.639	0.497	0.334	0.697	0.546	1.18	0.413	0.395
VFGVSYDEFRF [CFTR_Y512_I507V_YF]	0.859	0.984	1.09	0.736	1.98	0.799	1.4	1.09	0.578	1.25	2.83	0.823	0.577	1.13	0.452	1.13
SLDHPYEKPRK [INAVA_Y333]	1.77	0.852	0.683	0.421	0.388	0.329	0.436	0.741	0.349	0.39	0.352	0.423	0.467	0.63	0.339	0.371
RQNQEYEILLD [KRT39_Y379]	1.21	1.19	1.57	0.678	0.595	0.63	1.67	1.38	1.35	0.705	0.733	1.04	1.21	1.6	0.622	0.634
RWHEGYRQTPK [CD44_Y412]	0.898	1.47	1.73	0.595	0.367	0.356	0.607	0.66	0.407	0.429	0.361	0.418	0.589	0.678	0.405	0.418
WCSNDHLGMSR [ALAS2_Y199_Y199H]	0.684	0.801	0.811	0.576	0.438	0.418	0.537	0.754	0.394	0.375	0.447	0.504	0.514	0.671	0.416	0.434
VSFDEYRFRSF [CFTR_Y515_V520F_YF]	0.393	0.834	0.715	0.739	0.502	0.45	1.11	0.903	0.612	0.484	0.561	0.982	0.568	1.12	0.514	0.569
NHFKIYNLFAE [PTEN_Y68_C71Y_YF]				1.36	0.946	0.329	0.612	1.14	0.931	1.53	1.64	0.573	1.14	1.33	0.933	2.73
